The values that follow come from publication PMC6450724 (Molecular cell, 2019).

For orientation: stoichiometry N means a count of units in the complex or per binding partner.

Data set [1] addresses DnaC (with DnaB^KAEA and M13 ssDNA) (Escherichia coli, UniProt P0AEF0). Briefly: coupled pyruvate kinase/lactate dehydrogenase ATPase assay, A340. In kind it is biochemical. As to conditions: DnaB K236A/E262A and M13 ssDNA present; 10 mM MgCl2, pH 7.5, 37 °C.
Data set [2] concerns the target E. coli DnaB replicative helicase, wild type (E. coli) (UniProt P0ACB0). Put plainly: cryo-EM structure.
For data set [3] the target is unchanged. Put plainly: cryo-EM structure. The source holds these as a separate data set.
The data set “cryo-EM structure” deals with the molecule itself. Briefly: cryo-EM structure.

Read-outs that look alike come from different tables or passages of the source.

On to `Nc1ncnc2c1ncn2[C@@H]1O[C@H](COP(=O)(O)OP(=O)(O)OP(=O)(O)O)[C@@H](O)[C@H]1O` [ATP], for which the Km result in data set [1] was “DnaC follows apparent Michaelis-Menten behavior”. On to “E. coli DnaB replicative helicase, wild type (from UniProt P0ACB0 1-471) (enzyme)”, for which the stoichiometry N in data set [2] and in data set [3] was 6 each time.

B1: E. coli DnaC helicase loader, wild type (enzyme, UniProt P0AEF0 1-245, looked up)
chain: MKNVGDLMQRLQKMMPAHIKPAFKTGEELLAWQKEQGAIRSAALERENRAMKMQRTFNRSGIRPLHQNCSFENYRVECEGQMNALSKARQYVEEFDGNIASFIFSGKPGTGKNHLAAAICNELLLRGKSVLIITVADIMSAMKDTFRNSGTSEEQLLNDLSNVDLLVIDEIGVQTESKYEKVIINQIVDRRSSSKRPTGMLTNSNMEEMTKLLGERVMDRMRLGNSLWVIFNWDSYRSRVTGKEY
As to B1, in “cryo-EM structure”, the “stoichiometry N” value was 6.
